For test [1], the target named is T1, INO80-C ΔN sub-complex (Saccharomyces cerevisiae, UniProt P53115).
T1 construct: ten-subunit sub-complex; Ino80 truncated (residues 470-1490, printed 'residue 470 from 1490') with C-terminal Twin-Strep tag; MultiBac baculovirus, High Five insect cells; with Actin-related protein 5; Chromatin-remodeling complex subunit IES6; Ino eighty subunit 2; RuvB-like protein 1; RuvB-like protein 2; Actin-related protein 4; Actin-like protein ARP8; Actin; Ino eighty subunit 4
In words: NADH-coupled ATPase assay (pyruvate kinase / lactate dehydrogenase), absorbance at […] nm. To be noted: nucleosome-stimulated (0-320 nM 0N80 mononucleosomes, Xenopus laevis histones); 80 nM complex; 1 mM ATP (2 mM stated elsewhere in the source); 2 mM MgCl2, 50 mM NaCl, pH 8, 30 °C. Type of test: biochemical.

The target in test [2] is human APE1 endonuclease (AP-endonuclease 1) (human) (UniProt P27695).
The target is the same in test [3]. The source holds these as a separate data set.

human APE1 endonuclease (AP-endonuclease 1) (human), sequence (P27695 whole entry): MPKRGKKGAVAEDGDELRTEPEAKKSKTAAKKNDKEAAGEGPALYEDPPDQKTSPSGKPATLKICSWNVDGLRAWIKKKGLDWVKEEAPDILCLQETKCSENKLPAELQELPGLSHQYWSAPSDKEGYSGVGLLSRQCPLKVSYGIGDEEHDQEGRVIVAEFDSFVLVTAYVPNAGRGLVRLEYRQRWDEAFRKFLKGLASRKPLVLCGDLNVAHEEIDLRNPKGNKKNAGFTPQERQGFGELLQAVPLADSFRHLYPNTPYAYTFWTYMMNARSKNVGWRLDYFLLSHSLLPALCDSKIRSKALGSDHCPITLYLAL

For the compound `Nc1ncnc2c1ncn2[C@@H]1O[C@H](COP(=O)(O)OP(=O)(O)OP(=O)(O)O)[C@@H](O)[C@H]1O` [ATP], the “NADH-coupled ATPase assay (pyruvate kinase / lactate dehydrogenase), absorbance” value in test [1] is “conducted measurements of nucleosome-stimulated ATPase activity of INO80-C ΔN through a NADH+-coupled assay”.
In test [2], “endogenous yeast INO80-C complex (from UniProt P53115 1-1489; P53946 1-755; P32617 1-166; P40154 1-320; Q03940 1-463; Q12464 1-471; P80428 1-489; Q12386 1-881; P60010 1-375; Q08561 1-116; P35189 1-244; Q03435 1-203; P43579 1-692; Q12345 1-250; P40060 1-125)” displayed an APE1 incision assay: percent of dTHF(SHL-6) nucleosomes (100 nM) cleaved over 30 min by 5 nM APE1 with 25 nM INO80-C, with ATP (approximately 40% with APE1 alone) of 56%. Also, in test [3], the APE1 incision assay after pre-treatment of the APE1-INO80-C mixture at 37 °C for 20 min, with ATP: proportion of incised nucleosomes was 70%.
